Target: mAG (monomeric Azami-Green) with C-terminal E. coli BirA biotinylation motif and 6xHis tag
Experiment: capture of lambda phage on MACS streptavidin beads prebound with biotinylated mAG1; background control

## phage uninduced (control) for α-mAG1 Fab::calmodulin expression
  column output (phage (of 5.5×107 added)): 20000
